Test results: publication PMC8895158 (2022)

Target: His-Src SH3 (UniProt P12931 84-145)
Assay: SPR

Kd: 9.97 µM
Binder: RKLPPRPSK [RLP1 peptide]
